The text below walks through data of patent US20180066066A1 (University of Texas, published 2018).

Test [1] deals with T1, human HER3/ErbB3 extracellular domain (human, UniProt P21860 20-643).
T1 construct: extracellular domain; the range 1-643 of M34309 is printed only for the immunogen; also called Human HER3 ECD; recombinant human HER3
The test is described as follows: ELISA on human HER3 ECD.

In test [2] the target is T2, Mouse HER3 ECD (mouse, UniProt Q61526 20-641).
T2 construct: extracellular domain; also called mouse HER3 ECD domains
T2 sequence (Q61526 20-641): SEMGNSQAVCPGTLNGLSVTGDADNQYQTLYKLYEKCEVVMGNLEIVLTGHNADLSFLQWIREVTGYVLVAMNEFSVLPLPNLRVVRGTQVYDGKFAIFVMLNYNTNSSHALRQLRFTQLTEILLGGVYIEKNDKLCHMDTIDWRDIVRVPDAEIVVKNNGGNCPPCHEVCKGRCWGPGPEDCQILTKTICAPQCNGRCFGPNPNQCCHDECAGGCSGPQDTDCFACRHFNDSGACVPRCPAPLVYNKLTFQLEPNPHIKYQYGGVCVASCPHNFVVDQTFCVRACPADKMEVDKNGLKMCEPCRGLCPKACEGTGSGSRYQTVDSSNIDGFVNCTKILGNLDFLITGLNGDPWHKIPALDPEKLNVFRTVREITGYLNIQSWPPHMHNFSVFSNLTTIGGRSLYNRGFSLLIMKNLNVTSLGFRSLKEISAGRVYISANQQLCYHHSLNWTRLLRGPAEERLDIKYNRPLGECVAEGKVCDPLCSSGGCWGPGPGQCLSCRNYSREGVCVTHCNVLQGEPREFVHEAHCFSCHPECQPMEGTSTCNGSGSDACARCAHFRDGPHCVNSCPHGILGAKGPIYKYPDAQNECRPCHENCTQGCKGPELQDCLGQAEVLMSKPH
The test is described as follows: ELISA on mouse HER3 ECD.

For test [3], the target named is T1, human HER3/ErbB3 extracellular domain. Briefly: SPR, Biacore T-100, HER3 ECD. (In general: Surface plasmon resonance follows binding to a sensor surface in real time, without labels.)
The target of test [4] is T3, human HER3 receptor on cells (human, UniProt P21860 20-1342). Briefly: cell-based or functional assay.
T3 sequence (P21860 20-1342): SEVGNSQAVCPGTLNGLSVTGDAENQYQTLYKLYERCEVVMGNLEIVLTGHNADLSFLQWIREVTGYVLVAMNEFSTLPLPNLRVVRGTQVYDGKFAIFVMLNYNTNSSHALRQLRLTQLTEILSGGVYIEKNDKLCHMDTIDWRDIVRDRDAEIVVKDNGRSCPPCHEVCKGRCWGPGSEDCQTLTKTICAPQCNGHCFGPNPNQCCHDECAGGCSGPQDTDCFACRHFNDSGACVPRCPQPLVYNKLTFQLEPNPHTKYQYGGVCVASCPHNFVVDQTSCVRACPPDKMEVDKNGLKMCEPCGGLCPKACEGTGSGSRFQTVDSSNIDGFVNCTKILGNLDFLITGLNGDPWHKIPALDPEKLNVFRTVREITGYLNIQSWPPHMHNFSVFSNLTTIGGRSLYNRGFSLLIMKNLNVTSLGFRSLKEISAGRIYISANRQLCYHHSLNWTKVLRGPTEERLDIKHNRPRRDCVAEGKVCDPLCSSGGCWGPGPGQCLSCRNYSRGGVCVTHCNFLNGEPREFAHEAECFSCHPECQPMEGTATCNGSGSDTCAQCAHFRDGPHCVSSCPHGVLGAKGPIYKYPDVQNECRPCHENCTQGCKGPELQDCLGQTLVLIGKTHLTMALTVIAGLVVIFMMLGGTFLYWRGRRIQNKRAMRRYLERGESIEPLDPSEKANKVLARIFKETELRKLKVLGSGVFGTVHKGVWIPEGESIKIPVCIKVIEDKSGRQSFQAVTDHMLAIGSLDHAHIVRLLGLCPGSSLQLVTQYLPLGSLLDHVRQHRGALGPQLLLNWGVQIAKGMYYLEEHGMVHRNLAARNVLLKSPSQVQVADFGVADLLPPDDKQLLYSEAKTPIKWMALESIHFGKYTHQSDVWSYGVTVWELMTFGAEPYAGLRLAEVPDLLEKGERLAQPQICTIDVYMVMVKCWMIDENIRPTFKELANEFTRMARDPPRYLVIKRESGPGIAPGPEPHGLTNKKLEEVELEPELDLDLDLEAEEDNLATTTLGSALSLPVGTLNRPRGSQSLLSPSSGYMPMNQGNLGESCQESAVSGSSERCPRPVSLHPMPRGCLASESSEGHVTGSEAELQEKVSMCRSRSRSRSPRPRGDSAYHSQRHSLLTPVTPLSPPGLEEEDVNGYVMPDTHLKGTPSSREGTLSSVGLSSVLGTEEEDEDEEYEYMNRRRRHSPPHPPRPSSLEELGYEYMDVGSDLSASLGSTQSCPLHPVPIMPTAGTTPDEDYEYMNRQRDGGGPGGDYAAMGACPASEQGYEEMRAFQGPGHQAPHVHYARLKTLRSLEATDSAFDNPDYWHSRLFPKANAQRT
Test [5] concerns the target T3, human HER3 receptor on cells. The test is described as follows: cell-based or functional assay. This is another data set of the same source.
For test [6], the target named is T2, Mouse HER3 ECD. Briefly: ELISA on mouse HER3 ECD; column uncertain.

Changes are numbered by the printed parent chain.

T1 sequence (P21860 20-643): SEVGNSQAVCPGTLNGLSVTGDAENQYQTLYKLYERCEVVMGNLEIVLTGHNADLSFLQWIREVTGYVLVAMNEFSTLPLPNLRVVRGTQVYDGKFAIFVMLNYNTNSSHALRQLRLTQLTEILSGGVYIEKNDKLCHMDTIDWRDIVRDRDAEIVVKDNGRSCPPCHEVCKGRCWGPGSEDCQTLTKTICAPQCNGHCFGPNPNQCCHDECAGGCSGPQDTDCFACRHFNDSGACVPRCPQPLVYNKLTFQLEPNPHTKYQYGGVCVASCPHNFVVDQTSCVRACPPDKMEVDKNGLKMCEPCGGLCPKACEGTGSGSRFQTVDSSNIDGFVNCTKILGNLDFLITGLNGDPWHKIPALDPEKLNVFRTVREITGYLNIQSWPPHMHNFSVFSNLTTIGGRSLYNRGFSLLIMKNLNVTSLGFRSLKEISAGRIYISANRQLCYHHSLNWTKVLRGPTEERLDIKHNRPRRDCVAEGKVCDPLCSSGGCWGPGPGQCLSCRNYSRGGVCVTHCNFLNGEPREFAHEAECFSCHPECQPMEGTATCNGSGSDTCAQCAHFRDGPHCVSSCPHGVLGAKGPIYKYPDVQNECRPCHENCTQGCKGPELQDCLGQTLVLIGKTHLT

B1: HER3-hMab-A9 (antibody, V domains shown)
VH: QVQLVESGGGLVQPGGSLRLSCSASGFSFSASYYIYWVRQAPGKGLEYIAYITGDDDKRTYYANWAKGRFTISRDNSKNTVYLQMNSLRAEDTAVYYCTRNLPDELWGPGTLVTVSS
VL: DIQMTQTPSTLSASVGDRVTITCQSSESVYSYKNLAWYQQKPGKPPKLLIWQASRLSSGVPSRFSGSGSGTEFTLTISSLQPDDFATYYCQGTYYSSAWDFVFGGGTKVEIK
Consider B1, for which the values for the EC50 (in test [1]; with Mouse HER3 ECD [2]) were 3.1 ng/mL and 4.3 ng/mL, respectively.

B2: HER3-hMab-A11 (antibody, V domains shown)
VH: B1 VH
VL: B1 VL with D1Q, I2A
Regarding B2, the EC50 – broadly, the concentration at which the effect is half-maximal – came to 2.6 ng/mL in test [1] and 7.9 ng/mL with Mouse HER3 ECD [2].

B3: HER3-hMab-A10 (antibody, V domains shown)
VH: B1 VH with N76T
VL: B1 VL
B3: in test [1], the EC50 is 2.6 ng/mL. In test [3], the Kd – broadly, the concentration at which binding is half-saturated – is 1.2 nM; the koff (in general, a measure of how fast the partners let go of each other) came out at 0.000169 s⁻¹; the kon (as a rule, the second-order rate constant of association) turned out to be 141000 M⁻¹ s⁻¹. For the same molecule, the “Inhibition of MCF-7 cancer cell proliferation (IC50, µg/ml)” value in test [4] worked out at 0.181 µg/mL. In addition, the “pHER3 inhibition (IC50, µg/ml)” value in test [5] amounted to 0.0173 µg/ml. The EC50 in the test with Mouse HER3 ECD [2] came out at 5.4 ng/mL.

B4: HER3-hMab-A12 (antibody, V domains shown)
VH: B1 VH with N76T
VL: B1 VL with D1Q, I2A
On to B4, for which the EC50 in test [1] stood at 2.4 ng/mL; with Mouse HER3 ECD [2], 6.7 ng/mL.

B5: Chi46 (antibody, V domains shown)
VH: EEQLVESGGGLVQPEGSLTLTCTASGFSFSASYYIYWVRQAPGKGLEGIAYITGDDDKRTYYANWAKGRFTISKTSTTVTLQMTSLTAADTATYFCTRNLPDELWGPGTLVTVSS
VL: QAVVTQTPSSVSAAVGGTVTISCQSSESVYSYKNLAWYQQKPGQPPRLLIWQASRLSSGVSSRFSGSGSGTQFTLTISGVQCDDAATYYCQGTYYSSAWDFVFGGGTEVMVE
notes: also called parental rabbit/human Fc chimera of Rab46
B5 returned an EC50 in test [1] of 2.7 ng/mL. In test [3], this molecule showed a Kd of 3.32 nM, a koff of 0.000458 s⁻¹ and a kon of 138000 M⁻¹ s⁻¹. This molecule also yielded an EC50 with Mouse HER3 ECD [6] of 5.9 ng/mL. Moreover, the “pHER3 inhibition (IC50, µg/ml)” value in test [5] stood at 0.033 µg/ml.

B6: HER3-hMab-A14 (antibody, V domains shown)
VH: QVQLVESGGGLVQPGGSLRLSCSASGFSFSSSYWICWVRQAPGKGLELIGYIWSGNGATYYASWAKGRFTISRDTSKNTVYLQMNSLRAEDTAVYFCARNYDASGYGIFHLWGPGTLVTVSS
VL: DIQMTQTPSSLSASVGDRVTINCQASQSIVSSYLSWYQQKPGKPPKLLIYSASKLASGVPSRFSGSGSGTDFTLTISSLQPEDFATYYCLYGVDSSNIDNAFGGGTKVEIK
As for B6, in test [1], the EC50 amounted to 1.9 ng/mL. In test [3], binding was characterised by a dissociation constant (Kd) of 0.862 nM, the koff is 0.000174 s⁻¹ and the kon came out at 201000 M⁻¹ s⁻¹. Further, the “Inhibition of MCF-7 cancer cell proliferation (IC50, µg/ml)” value in test [4] was found to be 0.232 µg/mL. The “pHER3 inhibition (IC50, µg/ml)” value in test [5] came to 0.0017 µg/ml.

B7: Chi1210 (antibody, V domains shown)
VH: QEQLEESGGGLVQPEGSLTLTCTASGFSFSSSYWICWVRQAPGKGLELIGYIWSGNGATYYASWAKGRFTISKTSSTTVTLQMTSVTATDTATYFCARNYDASGYGIFHLWGPGTLVTVSS
VL: AVVMTQTPASVSAAVGGTVTINCQASQSIVSSYLSWYQQKTGQPPKLLIYSASKLASGVPPRFSGSGSGTQFTLTISGVQCDDAATYYCLYGVDSSNIDNAFGGGTEVVVK
notes: also called parental rabbit/human Fc chimera of Rab1210
For B7, in test [1], the EC50 came to 2.6 ng/mL. In test [3], this molecule returned a Kd of 1.2 nM, a koff of 0.000644 s⁻¹ and a kon of 538000 M⁻¹ s⁻¹. Moreover, in test [4], the “Inhibition of MCF-7 cancer cell proliferation (IC50, µg/ml)” value was found to be 0.084 µg/mL. In test [5], the “pHER3 inhibition (IC50, µg/ml)” value worked out at 0.0035 µg/ml.
